The target in assay [1] is T1, recombinant TIP1 protein (tax interacting protein 1) (Homo sapiens (Human), UniProt O14907 2-124, limits assumed).
T1 construct: Purified recombinant TIP1 used as coat or analyte in ELISA, Western blot and Biacore
T1 sequence: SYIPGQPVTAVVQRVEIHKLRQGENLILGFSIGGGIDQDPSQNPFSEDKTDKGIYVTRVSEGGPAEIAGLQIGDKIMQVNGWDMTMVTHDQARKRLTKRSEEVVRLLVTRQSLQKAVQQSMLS
As to the kind of experiment: indirect ELISA, hybridoma supernatant dilutions on coated recombinant TIP1, anti-mouse HRP, TMB.

In assay [2] the target is T2, TIP1 in or on human tumor cell lines (A549, H460, H23, U251) (human, UniProt O14907 2-124).
T2 construct: Endogenous TIP1 of tumor cell lines, not transfected cells; also called cell surface TIP1
T2 sequence: T1 sequence
The assay can be described thus: flow cytometry, hybridoma supernatant on A549, H460 and H23 cells, Alexa Fluor 488 anti-mouse antibody. In general terms: In flow cytometry, cells or beads pass a laser one at a time.

Substitutions are numbered along the chain they refer to.

B1: 4B12 mouse monoclonal anti-TIP1 antibody (antibody, V domains shown)
VH: QFQLQQSGAELARPGASVKLSCKASGYTFTSYGISWVKQRTGQGLEWIGEIYFRSGNIYYNEKFKGKATLTADKSSSTAYMELRSLTSEDSAVYFCARSKTFYSNYGGVFDYWGQGTTLTVSS
VL: DVLVTQTPLSLPVSLGDQASISCRSSRSIVHNNGNTYLEWYLQKPGQSPKLLIYKVSNRFSGVPDRFSGSGSGTDFTLKISRVEAEDLGVYYCFQGSHVPPTFGGGTRLEIK
notes: also called 4612
For the molecule B1, in assay [1], the binding result is “binds”.

B2: 3D6 mouse monoclonal anti-TIP1 antibody (antibody, V domains shown)
VH: QVQLHQSGAELARPGAAVKLTCKASGYTLTNSGISWVKQRSGQGLEWIGEIYPGSGNIYYNEKFKVKATLTADKSSSTTYMELRSLTSEDSAVYFCARSRTYYSKYGGLFDYWGQGATLTVSS
VL: B1 VL with V4M, S14R, R27Q, I29L, V30L, N58S, E86K, V99I, R108K
notes: Mouse monoclonal from hybridoma
On to B2, for which the binding result in assay [2] was “binds”.

B3: 2F10 mouse monoclonal anti-TIP1 antibody (antibody, V domains shown)
VH: QVQLQQSGAELARPGASVKLSCKASGYTFTSSGISWVIQKTGQGLEWIGEIYPRSGNTYYNEKFKAKAALTADKSSSTAHMELRSLTSEDSAVYFCARSKTYYSKYGGFFDYWGQGTPLTVSS
VL: B1 VL with V4M, R27Q, N32G, Y54H, R108K
notes: Mouse monoclonal from hybridoma, tested as supernatant or purified
B3: the binding result in assay [2] was “binds”.

B4: 7H5 mouse monoclonal anti-TIP1 antibody (antibody, V domains shown)
VH: QAQLQQSGAELARPGASVRLSCKASGYILTSSGISWVKQRTGQGLEWIGEIYPRSGNTYYNEKFKGKATLTADKSSSIAYMDLRTLTSEDSAVYFCARSKTFYSKYGGVFDYWGQGTTLTVSS
VL: B1 VL with V4M, R27Q, S28N, E39D, T74A, R108K
notes: as for B2
Regarding B4, the binding result in assay [2] is “binds”.

The record behind these values is patent US20200239590A1 (WASHINGTON UNIVERSITY, published 2020).
